Results published in patent publication US20090048158A1, “Insulin-Like Growth Factor Binding Protein-4 Compounds and Methods for Inhibiting Angiogenesis and Tumor Growth in Mammalian Cells” (priority 2005, published 2009).

Test system: human brain endothelial cells (HBEC)
Assay: Confocal microscopy internalization
Format: cell-based
Details: 100 nM AF647-CBP-4, 90 min (labelled IGFBP-4: unpublished observation)
Protocol: HBEC (100000 cell/well in a 24-well format plate) were seeded on human fibronectin- (40 μg/ml) coated cover slips (Bellco Biotechnology) in 400 μl HBEC media and grown until reached 80% confluence. Cells were then washed twice with D-MEM and incubated in D-MEM for 30 min at 37 C. Then, D-MEM was removed and replaced with 250 μl/well of D-MEM containing 100 nM AF647-CBP-4 conjugate for 90 min and then washed with PBS. Cells were counterstained with the membrane dye DiOC5(3) for 15 seconds and then washed with PBS. Imaging of cells was performed using Zeiss LSM 410 (Carl Zeiss, Thornwood, N.Y., USA) inverted laser scanning microscope equipped with an Argon\Krypton ion laser and a Plan-Apochromat 63X, NA 1.4. Confocal images of two fluoroprobes were sequentially obtained using 488 and 647 nm excitation laser lines to detect DiOC5(3) (510-525 nm emission) and Alexa 647 fluorescence (670-810 nm emission).

B1: fluorescently-labeled IGFBP-4: fluorescently-labeled IGFBP-4, unpublished observations (conjugate, UniProt P22692 22-258, looked up)
Insulin-like growth …: DEAIHCPPCSEEKLARCRPPVGCEELVREPGCGCCATCALGLGMPCGVYTPRCGSGLRCYPPRGVEKPLHTLMHGQGVCMELAEIEAIQESLQPSDKDEGDHPNNSFSPCSAHDRRCLQKHFAKIRDRSTSGGKMKVNGAPREDARPVPQGSCQSELHRALERLAASQSRTHEDLYIIPIPNCDRNGNFHPKQCHPALDGQRGKCWCVDRKTGVKLPGGLEPKGELDCHQLADSFRE
modifications: fluorescent label
notes: fluorescently-labeled IGFBP-4, unpublished observations
internalization into HBEC: internalized into HBEC
